{
  "source": "paper PMC5928126",
  "about": "(Nature Communications, 2018)",
  "proteins": {"B1": {"name": "measles virus fusion glycoprotein (F) (natural protein)", "chain": "QIHWGNLSKIGVVGIGSASYKVMTRSSHQSLVIKLMPNITLLNNCTRVEIAEYRRLLRTVLEPIRDALNAMTQNIRPVQSVASSRRHKRFAGVVLAGAALGVATAAQITAGIALHQSMLNSQAIDNLRASLETTNQAIEAIRQAGQEMILAVQGVQDYINNELIPSMNQLSCDLIGQKLGLKLLRYYTEILSLFGPSLRDPISAEISIQALSYALGGDINKVLEKLGYSGGDLLGILESRGIKARITHVDTESYFIVLSIAYPTLSEIKGVIVHRLEGVSYNIGSQEWYTTVPKYVATQGYLISNFDESSCTFMPEGTVCSQNALYPMSPLLQECLRGSTKSCARTLVSGSFGNRFILSQGNLIANCASILCKCYTTGTIINQDPDKILTYIAADHCPVVEVNGVTIQVGSRRYPDAVYLHRIDLGPPISLERLDVGTNLGNAIAKLEDAKELLESSDQILRSMKGLSSTSIVYILIAVCLGGLIGIPALICCCRGRCNKKGEQVGMSRPGLKPDLTGTSKSYVRSL", "notes": "also called MeV F; pre-fusion F"}},
  "molecular_target": "the molecule itself",
  "assay": "cryo-EM structure",
  "data": [
    {"protein": "B1", "values": [
      {"measurement": "stoichiometry N", "result": 3}
    ]}
  ]
}
